Experimental data: US20030219427A1, “TPL-2/COT kinase and methods of use” (priority 1998, published 2003)
* marks the point of attachment. Biotin = O=C1N[C@H]2[C@H](CS[C@H]2CCCCC(=O)*)N1

Assays:
[1] = biological target: endogenous NF-κB1 p105 (HeLa, Jurkat and 293 cells) (UniProt P19838); experiment: cell-based or functional assay
Myc-TPL-2 = Myc-TPL-2 (Homo sapiens (Human), UniProt P41279 1-467); experiment: cell-based or functional assay
Myc-TPL-2ΔC = Myc-TPL-2ΔC (Homo sapiens (Human), UniProt P41279 1-397); experiment: cell-based or functional assay
Myc-TPL-2ΔC, sequence (P41279 1-397, stated change not applied): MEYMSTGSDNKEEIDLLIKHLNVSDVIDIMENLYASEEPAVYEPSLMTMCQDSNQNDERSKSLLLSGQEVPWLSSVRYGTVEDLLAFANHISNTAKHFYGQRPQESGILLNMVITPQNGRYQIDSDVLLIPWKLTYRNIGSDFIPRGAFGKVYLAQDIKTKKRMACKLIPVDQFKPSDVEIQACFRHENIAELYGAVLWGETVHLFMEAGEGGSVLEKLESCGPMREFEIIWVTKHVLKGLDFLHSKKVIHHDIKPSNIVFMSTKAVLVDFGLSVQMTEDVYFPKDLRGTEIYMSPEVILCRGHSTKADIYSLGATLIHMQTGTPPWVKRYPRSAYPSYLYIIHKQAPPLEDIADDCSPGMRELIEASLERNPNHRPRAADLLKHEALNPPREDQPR

[2] = biological target: T1, Myc-Raf1(CAAX) MEK kinase activity (Homo sapiens, UniProt P04049); experiment: In vitro MEK kinase assay, activated Raf1; assay type: biochemical
T1 construct: CAAX membrane-targeting motif (C); made in house

[3] = biological target: T2, endogenous p105 (mouse 3T3 fibroblasts) (mouse, UniProt P25799 1-971); experiment: anti-TPL-2 immunoprecipitation from lysates of wild type mouse 3T3 fibroblasts, Western blot
T2 sequence (looked up): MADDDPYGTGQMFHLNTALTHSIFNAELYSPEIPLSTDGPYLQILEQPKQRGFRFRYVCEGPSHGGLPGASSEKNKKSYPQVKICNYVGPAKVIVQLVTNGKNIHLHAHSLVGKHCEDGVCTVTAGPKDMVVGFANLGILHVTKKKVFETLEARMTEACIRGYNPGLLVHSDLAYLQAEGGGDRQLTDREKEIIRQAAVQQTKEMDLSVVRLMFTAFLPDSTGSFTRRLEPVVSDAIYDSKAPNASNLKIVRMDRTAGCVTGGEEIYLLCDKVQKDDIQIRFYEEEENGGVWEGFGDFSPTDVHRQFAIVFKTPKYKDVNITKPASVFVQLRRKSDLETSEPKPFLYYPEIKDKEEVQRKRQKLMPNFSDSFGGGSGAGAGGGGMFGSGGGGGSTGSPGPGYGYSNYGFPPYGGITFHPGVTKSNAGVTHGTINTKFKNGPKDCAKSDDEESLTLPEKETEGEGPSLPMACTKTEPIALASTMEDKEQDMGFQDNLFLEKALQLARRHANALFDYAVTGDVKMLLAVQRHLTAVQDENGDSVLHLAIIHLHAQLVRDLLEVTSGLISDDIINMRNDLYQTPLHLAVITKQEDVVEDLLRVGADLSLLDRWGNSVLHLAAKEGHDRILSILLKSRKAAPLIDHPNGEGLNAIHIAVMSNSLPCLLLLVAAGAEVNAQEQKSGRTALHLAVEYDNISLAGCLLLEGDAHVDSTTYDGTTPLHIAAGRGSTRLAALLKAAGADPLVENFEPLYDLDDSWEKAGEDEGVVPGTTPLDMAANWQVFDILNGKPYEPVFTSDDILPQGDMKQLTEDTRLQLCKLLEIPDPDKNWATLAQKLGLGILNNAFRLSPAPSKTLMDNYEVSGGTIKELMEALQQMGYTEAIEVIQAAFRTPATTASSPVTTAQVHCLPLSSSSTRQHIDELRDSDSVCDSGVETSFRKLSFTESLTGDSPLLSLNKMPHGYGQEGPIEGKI
Protocol: (5.5.c) To determine whether p105 regulates the steady-state levels of endogenous TPL-2 protein, cell lysates were prepared from 3T3 fibroblasts derived from wild type and NF-κB1-deficient mice. TPL-2 was readily detected by Western blotting of anti-TPL-2 immunoprecipitates from wild type fibroblasts and was associated with endogenous p105.

HA-p105(369-969) = biological target: T3, HA-p105(369-969) (Homo sapiens (Human), UniProt P19838 368-968); experiment: co-expression in HEK293 cells, isolation of the complex from lysates
T3 construct: also called p105?N
T3 sequence: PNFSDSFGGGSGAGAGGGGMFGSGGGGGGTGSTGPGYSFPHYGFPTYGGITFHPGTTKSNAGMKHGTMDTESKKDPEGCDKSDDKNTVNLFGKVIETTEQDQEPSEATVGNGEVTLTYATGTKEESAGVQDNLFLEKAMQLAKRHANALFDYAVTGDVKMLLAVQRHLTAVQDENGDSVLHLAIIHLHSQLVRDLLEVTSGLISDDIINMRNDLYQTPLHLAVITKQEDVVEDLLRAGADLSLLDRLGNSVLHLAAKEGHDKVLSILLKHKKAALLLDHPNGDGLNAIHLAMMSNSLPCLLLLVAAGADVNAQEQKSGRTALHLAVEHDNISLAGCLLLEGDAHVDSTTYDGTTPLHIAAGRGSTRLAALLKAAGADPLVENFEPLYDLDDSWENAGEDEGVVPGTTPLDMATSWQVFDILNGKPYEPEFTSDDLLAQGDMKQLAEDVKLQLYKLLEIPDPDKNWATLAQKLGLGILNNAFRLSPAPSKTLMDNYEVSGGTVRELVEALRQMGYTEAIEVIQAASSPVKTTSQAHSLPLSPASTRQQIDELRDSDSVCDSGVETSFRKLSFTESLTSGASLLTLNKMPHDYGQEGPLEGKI

recombinant p105 541-802 = biological target: T4, recombinant p105 541-802 (Homo sapiens (Human), UniProt P19838 540-801); experiment: surface plasmon resonance (BIAcore), biotinylated peptide on streptavidin chip
T4 construct: Made in E. coli as a GST fusion and cleaved from GST
T4 sequence: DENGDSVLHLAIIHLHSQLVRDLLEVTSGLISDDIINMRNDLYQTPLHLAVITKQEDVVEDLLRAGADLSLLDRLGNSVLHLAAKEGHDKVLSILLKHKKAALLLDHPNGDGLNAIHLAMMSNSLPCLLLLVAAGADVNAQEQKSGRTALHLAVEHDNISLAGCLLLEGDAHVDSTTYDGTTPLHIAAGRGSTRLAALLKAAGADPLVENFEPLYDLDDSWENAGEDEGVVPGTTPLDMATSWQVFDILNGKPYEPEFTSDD
Protocol: (§1) Interaction between the TPL-2 C-terminus and recombinant p105 proteins was measured by surface plasmon resonance using the BIAcore system (BIAcore AB, Uppsala, Sweden; (Szabo, A., et al. (1995) Curr. Opin. Struct. biol. 5: 699-705)). The C-terminal 70 amino acids of TPL-2 (TPL-2₃₉₈₋₄₆₇) were synthesised as a biotinylated peptide (conjugated to the equivalent of Cys398 of full length TPL-2) and immobilized on a Streptavidin-coated sensor surface (Sensorchip SA, BIAcore AB). Recombinant p105 proteins were then injected at different concentrations and resonance signals monitored. Dissociation at 25° C. was measured by flushing the TPL-2/p105 complexes with HBS-P buffer (10 MM HEPES-pH7.4, 150 mM NaCl, 0.005% (v/v) polysorbate 20; BIAcore AB). Data were evaluated using BIAevaluation software, version 3.0.2.

[4] = biological target: T5, Myc-TPL-2ΔC MEK kinase activity (Rattus norvegicus, UniProt Q63562); experiment: In vitro MEK kinase assay with GST-MEK1(K207A) substrate, Myc-TPL-2ΔC; assay type: biochemical
T5 construct: TPL-2ΔC which lacks the C-terminal 70 amino acids; made in house; host or cells: HEK 293 cells, transient transfection, anti-Myc immunoprecipitation
T5 sequence (Q63562 1-397, stated change not applied): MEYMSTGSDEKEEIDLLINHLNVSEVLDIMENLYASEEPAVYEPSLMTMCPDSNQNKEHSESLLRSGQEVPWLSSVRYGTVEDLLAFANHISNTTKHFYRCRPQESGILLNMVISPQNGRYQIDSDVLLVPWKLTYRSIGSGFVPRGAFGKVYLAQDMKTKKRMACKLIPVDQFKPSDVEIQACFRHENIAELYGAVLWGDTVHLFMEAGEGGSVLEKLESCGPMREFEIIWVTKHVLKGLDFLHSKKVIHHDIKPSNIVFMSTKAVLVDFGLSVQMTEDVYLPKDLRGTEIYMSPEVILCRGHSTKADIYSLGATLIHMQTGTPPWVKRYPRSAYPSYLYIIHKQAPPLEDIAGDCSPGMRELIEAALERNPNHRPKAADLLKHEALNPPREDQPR
Protocol: Myc-TPL-2 or Myc-TPL-2ΔC were isolated by immunoprecipitation from lysates of transiently transfected 293 cells, as described above. immunoprecipitates were washed four times in Buffer A, followed by two washes in kinase buffer (50 mM Tris-pH7.5, 150 mM NaCl, 5 mM β-glycerophosphate, 2 mM dithiothreitol, 0.1 mM sodium vanadate, 10 mM MgCl2, 1 mM EGTA, 0.01% Brij35). Beads were then resuspended in 50μl of kinase buffer plus the indicated amounts of recombinant p105 protein and incubated at 4° C. for 30 min. […] The supernatant was removed, mixed with an equal volume of 2×sample buffer, Western blotted after 8%-acrylamide SDS-PAGE and probed with anti-phospho-MEK-½ antibody. Immunoprecipitated Myc-TPL-2 or Myc-TPL-2ΔC was eluted with Laemlli sample buffer from the remaining anti-Myc mAb beads and quantified by Western blotting.
(5.6.c) The inhibition of TPL-2 MEK kinase activity by p 105498-969 may be more efficient than the isolated p105 DD as the former protein contains a binding site for the TPL-2 C-terminus. It was, therefore, interesting to determine the sensitivity of TPL2ΔC catalytic activity to inhibition by p105. The specific activity of Myc-TPL-2ΔC, isolated by immunoprecipitation from transfected 293 cell lysates, was modestly (approximately 2-3 fold) increased relative to wild type Myc-TPL-2.

[5] = biological target: T6, TPL-2 C-terminus (TPL-2398-467 peptide) (Rattus norvegicus, UniProt Q63562); experiment: Surface plasmon resonance (BIAcore) binding to immobilized TPL-2 C-terminal peptide; settings: biotinylated TPL-2398-467 on Streptavidin sensor surface, 25° C.
T6 construct: a synthetic peptide corresponding to the C-terminus of TPL-2 (residues 398-467); made in house; host or cells: chemical peptide synthesis
T6 sequence (Q63562 398-467): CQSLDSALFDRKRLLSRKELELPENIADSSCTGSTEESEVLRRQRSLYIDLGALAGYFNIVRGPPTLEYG
Protocol: as §1, with “(TPL-2398-467)” for “(TPL-2₃₉₈₋₄₆₇)”
(5.3.b) In order to obtain corroborating evidence for the TPL-2 C-terminus binding site on p105, surface plasmon resonance experiments were carried out using the panel of recombinant p105 proteins including p105 1-969, p105 498-969, p105 498-806, p105 497-782 and p105 541-802.

TPL-2ΔC (from UniProt P41279 1-397)
NF-κB-dependent luciferase reporter gene in Jurkat T cells [1]: 12 fold

B1: recombinant p105498-969 protein (other)
chain: QDNLFLEKAMQLAKRHANALFDYAVTGDVKMLLAVQRHLTAVQDENGDSVLHLAIIHLHSQLVRDLLEVTSGLISDDIINMRNDLYQTPLHLAVITKQEDVVEDLLRAGADLSLLDRLGNSVLHLAAKEGHDKVLSILLKHKKAALLLDHPNGDGLNAIHLAMMSNSLPCLLLLVAAGADVNAQEQKSGRTALHLAVEHDNISLAGCLLLEGDAHVDSTTYDGTTPLHIAAGRGSTRLAALLKAAGADPLVENFEPLYDLDDSWENAGEDEGVVPGTTPLDMATSWQVFDILNGKPYEPEFTSDDLLAQGDMKQLAEDVKLQLYKLLEIPDPDKNWATLAQKLGLGILNNAFRLSPAPSKTLMDNYEVSGGTVRELVEALRQMGYTEAIEVIQAASSPVKTTSQAHSLPLSPASTRQQIDELRDSDSVCDSGVETSFRKLSFTESLTSGASLLTLNKMPHDYGQEGPLEGKI
IC50 of inhibition of TPL-2 MEK kinase activity (phosphorylation of GST-MEK1(K207A) in vitro) (Myc-TPL-2): 90 nM
IC50 of inhibition of TPL-2ΔC MEK kinase activity in vitro (Myc-TPL-2ΔC): 1000 nM
effect on Myc-Raf1(CAAX) MEK kinase activity [2]: unaffected

B2: endogenous TPL-2 (mouse 3T3 fibroblasts) (enzyme, UniProt Q07174 1-467, looked up)
chain: MEYMSTGSDEKEEIDLLIKHLNVSEVIDIMENLYASEEPGVYEPSLMTMYPDSNQNEERSESLLRSGQEVPWLSSVRYGTVEDLLAFANHVSNMTKHFYGRRPQECGILLNMVISPQNGRYQIDSDVLLVPWKLTYRNIGSGFVPRGAFGKVYLAQDMKTKKRMACKLIPIDQFKPSDVEIQACFRHENIAELYGAVLWGDTVHLFMEAGEGGSVLEKLESCGPMREFEIIWVTKHILKGLDFLHSKKVIHHDIKPSNIVFMSTKAVLVDFGLSVKMTEDVYLPKDLRGTEIYMSPEVILCRGHSTKADIYSLGATLIHMQTGTPPWVKRYPRSAYPSYLYIIHKQAPPLEDIAGDCSPGMRELIEAALERNPNHRPKAADLLKHEALNPPREDQPRCQSLDSALFERKRLLSRKELQLPENIADSSCTGSTEESEVLRRQRSLYIDLGALAGYFNIVRGPPTLEYG
binding result [3]: binds

B3: COT(131-411) (enzyme, not shown: small tags and cut ends)
chain: PWKLTYRNIGSDFIPRGAFGKVYLAQDIKTKKRMACKLIPVDQFKPSDVEIQACFRHENIAELYGAVLWGETVHLFMEAGEGGSVLEKLESCGPMREFEIIWVTKHVLKGLDFLHSKKVIHHDIKPSNIVFMSTKAVLVDFGLSVQMTEDVYFPKDLRGTEIYMSPEVILCRGHSTKADIYSLGATLIHMQTGTPPWVKRYPRSAYPSYLYIIHKQAPPLEDIADDCSPGMRELIEASLERNPNHRPRAADLLKHEALNPPREDQPRCTSLDSALLERKRL
notes: also called TPL-2 (131-411)
binding result (HA-p105(369-969)): binds

B4: biotinylated TPL-2398-467 peptide (peptide)
peptide: C(Biotin)TSLDSALLERKRLLSRKELELPENIADSSCTGSTEESEMLKRQRSLYIDLGALAGYFNLVRGPPTLEYG
notes: Immobilized on a streptavidin-coated BIAcore sensor surface; also called TPL-2 peptide; TPL-2 C-terminus
binding result (recombinant p105 541-802): no binding

B5: TPL-2398-467 peptide: synthetic peptide corresponding to the C-terminal 70 amino acids of TPL-2 (peptide)
peptide: CTSLDSALLERKRLLSRKELELPENIADSSCTGSTEESEMLKRQRSLYIDLGALAGYFNLVRGPPTLEYG
effect on TPL-2ΔC in vitro MEK kinase activity [4]: not found to affect

B6: p105541-802: recombinant p105 protein, residues 541-802 (protein)
chain: T4 sequence
binding to the TPL-2 peptide (affinity constants) [5]: did not detectably bind
